Test results taken from WO2017204277A1.

Target: mature h(m)TGF-beta3 (mature form of human (mouse) TGF-beta3) (human (mouse); the filing says the mature forms are identical)
Assay: cell-based or functional assay

GC1008-hIgG1 (antibody)
suppression of TGF-beta3 physiological activity (Smad signal), SEAP activity of HEK-Blue TGFb cells, OD620nm: 100%
